Test results as given in publication PMC10397247.

Tests used:
4H492-bA = biological target: T1, 4H492-bA; assay: two-hybrid library CCNG1;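 also: natural log of median RNA to DNA barcode read ratio; higher means stronger binding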
T1 chain: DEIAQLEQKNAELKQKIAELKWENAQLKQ

4H477-bA = biological target: T2, 4H477-bA; assay: two-hybrid library CCNG1;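 also: natural log of median RNA to DNA barcode read ratio; higher means stronger binding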
T2 chain: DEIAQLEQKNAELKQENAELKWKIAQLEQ

4H741-bA = biological target: T3, 4H741-bA; assay: two-hybrid library CCNG1;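 also: natural log of median RNA to DNA barcode read ratio; higher means stronger binding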
T3 chain: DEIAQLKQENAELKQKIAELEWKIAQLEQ

4H72-bN = biological target: T4, 4H72-bN; assay: two-hybrid library CCNG1;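 also: natural log of median RNA to DNA barcode read ratio; higher means stronger binding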
T4 chain: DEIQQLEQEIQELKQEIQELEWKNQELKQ

4H369-AA = biological target: T5, 4H369-AA; assay: two-hybrid library CCmax;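 also: natural log of median RNA to DNA barcode read ratio; higher means stronger binding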
T5 chain: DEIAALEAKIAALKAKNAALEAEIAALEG

4H4033-AA = biological target: T6, 4H4033-AA; assay: two-hybrid library CCmax; details: mean of both orientations;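 also: natural log of median RNA to DNA barcode read ratio; higher means stronger binding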
T6 chain: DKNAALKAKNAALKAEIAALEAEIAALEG

4H481-AA = biological target: T7, 4H481-AA; assay: two-hybrid library CCmax; details: mean of both orientations
T7 chain: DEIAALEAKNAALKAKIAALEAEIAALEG

4H662-AA = biological target: T8, 4H662-AA; assay: two-hybrid library CCmax; details: mean of both orientations
T8 chain: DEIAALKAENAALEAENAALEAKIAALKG

4H3922-AA = biological target: T9, 4H3922-AA; assay: two-hybrid library CCmax; details: mean of both orientations
T9 chain: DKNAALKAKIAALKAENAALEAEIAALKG

4H55-AA = biological target: T10, 4H55-AA; assay: two-hybrid library CCmax; details: mean of both orientations
T10 chain: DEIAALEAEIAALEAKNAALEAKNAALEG

4H2725-AA = biological target: T11, 4H2725-AA; assay: two-hybrid library CCmax; details: mean of both orientations
T11 chain: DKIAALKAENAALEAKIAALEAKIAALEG

4H710-AA = biological target: T12, 4H710-AA; assay: two-hybrid library CCmax
T12 chain: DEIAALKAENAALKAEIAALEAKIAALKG

4H3016-AA = biological target: T13, 4H3016-AA; assay: two-hybrid library CCmax; details: mean of both orientations
T13 chain: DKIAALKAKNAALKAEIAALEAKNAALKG

4H3395-AA = biological target: T14, 4H3395-AA; assay: two-hybrid library CCmax; details: mean of both orientations
T14 chain: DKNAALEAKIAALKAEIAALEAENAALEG

4H891-AA = biological target: T15, 4H891-AA; assay: two-hybrid library CCmax; details: mean of both orientations
T15 chain: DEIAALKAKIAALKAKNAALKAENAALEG

4H797-AA = biological target: T16, 4H797-AA; assay: two-hybrid library CCmax; details: mean of both orientations
T16 chain: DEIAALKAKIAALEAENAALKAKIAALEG

4H2473-AA = biological target: T17, 4H2473-AA; assay: two-hybrid library CCmax; details: mean of both orientations
T17 chain: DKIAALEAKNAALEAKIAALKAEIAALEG

4H536-AA = biological target: T18, 4H536-AA; assay: two-hybrid library CCmax; details: mean of both orientations
T18 chain: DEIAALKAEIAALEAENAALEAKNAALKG

4H3165-AA = biological target: T19, 4H3165-AA; assay: two-hybrid library CCmax; details: mean of both orientations
T19 chain: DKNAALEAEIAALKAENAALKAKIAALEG

4H2649-AA = biological target: T20, 4H2649-AA; assay: two-hybrid library CCmax; details: mean of both orientations
T20 chain: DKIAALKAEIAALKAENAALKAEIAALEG

4H458-AA = biological target: T21, 4H458-AA; assay: two-hybrid library CCmax; details: mean of both orientations
T21 chain: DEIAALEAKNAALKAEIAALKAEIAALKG

4H570-AA = biological target: T22, 4H570-AA; assay: two-hybrid library CCmax; details: mean of both orientations
T22 chain: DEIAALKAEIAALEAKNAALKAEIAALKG

4H2698-AA = biological target: T23, 4H2698-AA; assay: two-hybrid library CCmax; details: mean of both orientations
T23 chain: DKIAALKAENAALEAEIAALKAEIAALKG

4H3590-AA = biological target: T24, 4H3590-AA; assay: two-hybrid library CCmax; details: mean of both orientations
T24 chain: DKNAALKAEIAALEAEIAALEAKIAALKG

4H3130-AA = biological target: T25, 4H3130-AA; assay: two-hybrid library CCmax; details: mean of both orientations
T25 chain: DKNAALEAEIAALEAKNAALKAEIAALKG

4H3753-AA = biological target: T26, 4H3753-AA; assay: two-hybrid library CCmax; details: mean of both orientations
T26 chain: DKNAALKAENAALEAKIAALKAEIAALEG

4H94-AA = biological target: T27, 4H94-AA; assay: two-hybrid library CCmax; details: mean of both orientations
T27 chain: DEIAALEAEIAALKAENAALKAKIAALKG

4H2865-AA = biological target: T28, 4H2865-AA; assay: two-hybrid library CCmax; details: mean of both orientations
T28 chain: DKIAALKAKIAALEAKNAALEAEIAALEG

4H629-AA = biological target: T29, 4H629-AA; assay: two-hybrid library CCmax; details: mean of both orientations
T29 chain: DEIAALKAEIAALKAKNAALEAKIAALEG

4H850-AA = biological target: T30, 4H850-AA; assay: two-hybrid library CCmax; details: mean of both orientations
T30 chain: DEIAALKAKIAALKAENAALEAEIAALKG

4H3697-AA = biological target: T31, 4H3697-AA; assay: two-hybrid library CCmax; details: mean of both orientations
T31 chain: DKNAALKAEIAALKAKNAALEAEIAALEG

4H3009-AA = biological target: T32, 4H3009-AA; assay: two-hybrid library CCmax; details: mean of both orientations
T32 chain: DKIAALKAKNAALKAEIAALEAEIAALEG

4H930-AA = biological target: T33, 4H930-AA; assay: two-hybrid library CCmax; details: mean of both orientations
T33 chain: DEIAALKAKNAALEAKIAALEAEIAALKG

4H3410-AA = biological target: T34, 4H3410-AA; assay: two-hybrid library CCmax; details: mean of both orientations
T34 chain: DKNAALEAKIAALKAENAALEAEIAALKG

4H3381-AA = biological target: T35, 4H3381-AA; assay: two-hybrid library CCmax; details: mean of both orientations
T35 chain: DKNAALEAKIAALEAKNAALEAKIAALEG

4H2438-AA = biological target: T36, 4H2438-AA; assay: two-hybrid library CCmax
T36 chain: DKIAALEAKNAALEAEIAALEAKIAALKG

4H909-AA = biological target: T37, 4H909-AA; assay: two-hybrid library CCmax; details: mean of both orientations
T37 chain: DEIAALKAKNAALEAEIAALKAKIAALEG

4H310-AA = biological target: T38, 4H310-AA; assay: two-hybrid library CCmax; details: mean of both orientations
T38 chain: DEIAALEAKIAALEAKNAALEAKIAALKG

4H485-AA = biological target: T39, 4H485-AA; assay: two-hybrid library CCmax; details: mean of both orientations
T39 chain: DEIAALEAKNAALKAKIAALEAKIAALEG

4H3865-AA = biological target: T40, 4H3865-AA; assay: two-hybrid library CCmax; details: mean of both orientations
T40 chain: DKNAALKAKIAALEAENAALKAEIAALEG

4H3120-AA = biological target: T41, 4H3120-AA; assay: two-hybrid library CCmax; details: mean of both orientations
T41 chain: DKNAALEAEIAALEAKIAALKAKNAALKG

4H745-AA = biological target: T42, 4H745-AA; assay: two-hybrid library CCmax; details: mean of both orientations
T42 chain: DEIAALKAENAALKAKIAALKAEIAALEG

4H953-bN = biological target: T43, 4H953-bN; assay: two-hybrid library CCNG1
T43 chain: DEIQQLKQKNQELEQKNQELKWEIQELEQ

4H968-bN = biological target: T44, 4H968-bN; assay: two-hybrid library CCNG1
T44 chain: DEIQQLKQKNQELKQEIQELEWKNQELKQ

4H683-bN = biological target: T45, 4H683-bN; assay: two-hybrid library CCNG1
T45 chain: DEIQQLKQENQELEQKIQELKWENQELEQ

4H754-bN = biological target: T46, 4H754-bN; assay: two-hybrid library CCNG1
T46 chain: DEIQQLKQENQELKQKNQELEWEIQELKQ

4H918-bN = biological target: T47, 4H918-bN; assay: two-hybrid library CCNG1
T47 chain: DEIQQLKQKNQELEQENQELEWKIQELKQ

4H780-bN = biological target: T48, 4H780-bN; assay: two-hybrid library CCNG1
T48 chain: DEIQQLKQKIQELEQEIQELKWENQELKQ

4H797-bN = biological target: T49, 4H797-bN; assay: two-hybrid library CCNG1
T49 chain: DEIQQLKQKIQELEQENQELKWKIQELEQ

4H855-bN = biological target: T50, 4H855-bN; assay: two-hybrid library CCNG1
T50 chain: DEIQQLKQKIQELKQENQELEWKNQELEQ

4H3940-AA = biological target: T51, 4H3940-AA; assay: two-hybrid library CCmax; details: mean of both orientations
T51 chain: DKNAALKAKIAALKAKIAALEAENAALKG

4H510-AA = biological target: T52, 4H510-AA; assay: two-hybrid library CCmax; details: mean of both orientations
T52 chain: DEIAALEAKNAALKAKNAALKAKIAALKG

4H775-AA = biological target: T53, 4H775-AA; assay: two-hybrid library CCmax; details: mean of both orientations
T53 chain: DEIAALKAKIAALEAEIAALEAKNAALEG

4H87-AA = biological target: T54, 4H87-AA; assay: two-hybrid library CCmax; details: mean of both orientations
T54 chain: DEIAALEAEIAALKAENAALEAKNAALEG

4H390-AA = biological target: T55, 4H390-AA; assay: two-hybrid library CCmax
T55 chain: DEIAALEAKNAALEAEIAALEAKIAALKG

4H816-AA = biological target: T56, 4H816-AA; assay: two-hybrid library CCmax; details: mean of both orientations
T56 chain: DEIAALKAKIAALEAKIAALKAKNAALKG

4H_BCR = biological target: T57, 4H_BCR; assay: two-hybrid library CCmax; details: mean of both orientations
T57 chain: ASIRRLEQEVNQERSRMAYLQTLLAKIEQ

GCN2_T = assay: two-hybrid library CCmax
4H58-AA = biological target: T58, 4H58-AA; assay: two-hybrid library CCmax
T58 chain: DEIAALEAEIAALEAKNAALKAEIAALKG

4H895-AA = biological target: T59, 4H895-AA; assay: two-hybrid library CCmax; details: mean of both orientations
T59 chain: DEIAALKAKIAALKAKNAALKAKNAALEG

4H_APH = biological target: T60, 4H_APH; assay: two-hybrid library CCmax
T60 chain: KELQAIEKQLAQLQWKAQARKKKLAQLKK

4H_GCN4 = assay: two-hybrid library CCmax
4H_GCN4, sequence (chain, as listed by the source): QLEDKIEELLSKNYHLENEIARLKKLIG

## DEIAQLEQKNAELKQENAELKWKIAQLEQ [4H477-bA]
4H492-bA
  interaction score: -0.749
4H477-bA
  interaction score: -0.249
4H741-bA
  interaction score: -1.37
4H72-bN
  interaction score: -3.66

## DEIAALEAKIAALKAKNAALEAEIAALEG [4H369-AA]
4H369-AA
  interaction score: -0.526
4H4033-AA
  interaction score: -0.678
4H481-AA
  interaction score: -0.912
4H662-AA
  interaction score: 1.3
4H3922-AA
  interaction score: 0.000191
4H55-AA
  interaction score: -0.33

## DKIAALEAKNAALEAEIAALEAKIAALKG [4H2438-AA]
4H2725-AA
  interaction score: 1.32
4H710-AA
  interaction score: -0.823
4H3016-AA
  interaction score: -0.613
4H3395-AA
  interaction score: 0.314
4H891-AA
  interaction score: -1.67
4H797-AA
  interaction score: -1.67
4H2473-AA
  interaction score: 1.99
4H536-AA
  interaction score: -1.47
4H3165-AA
  interaction score: -1.17
4H2649-AA
  interaction score: -0.664
4H458-AA
  interaction score: 2.03
4H570-AA
  interaction score: 0.233
4H2698-AA
  interaction score: 1.25
4H3590-AA
  interaction score: -0.136
4H3130-AA
  interaction score: -0.561
4H3753-AA
  interaction score: 1.89
4H94-AA
  interaction score: 1.28
4H2865-AA
  interaction score: -0.236
4H629-AA
  interaction score: -1.42
4H850-AA
  interaction score: 0.962
4H3697-AA
  interaction score: -1.23
4H3009-AA
  interaction score: 1.88
4H930-AA
  interaction score: 0.452
4H3410-AA
  interaction score: 0.0321
4H3381-AA
  interaction score: -1.06
4H2438-AA
  interaction score: 1.62
4H909-AA
  interaction score: 0.42
4H310-AA
  interaction score: -0.376
4H485-AA
  interaction score: 2.05
4H3865-AA
  interaction score: -1.16
4H3120-AA
  interaction score: -0.892
4H745-AA
  interaction score: 1.6

## DEIQQLKQENQELEQKIQELKWENQELEQ [4H683-bN]
4H953-bN
  interaction score: -0.218
4H968-bN
  interaction score: 1.51
4H683-bN
  interaction score: -0.0866
4H754-bN
  interaction score: -1.46
4H918-bN
  interaction score: -0.318
4H780-bN
  interaction score: -0.606
4H797-bN
  interaction score: 0.0127
4H855-bN
  interaction score: -0.411

## DEIAALEAKNAALEAEIAALEAKIAALKG [4H390-AA]
4H3940-AA
  interaction score: -0.115
4H510-AA
  interaction score: 1.57
4H775-AA
  interaction score: -0.316
4H87-AA
  interaction score: -1.41
4H390-AA
  interaction score: 2.23
4H816-AA
  interaction score: 0.183

## DEIAALEAEIAALEAKNAALKAEIAALKG [4H58-AA]
4H_BCR
  interaction score: -2.14
GCN2_T
  interaction score: -0.172
4H58-AA
  interaction score: 1.75
4H895-AA
  interaction score: -0.545
4H_APH
  interaction score: -1.68
4H_GCN4
  interaction score: 0.011
